From patent US10030065

Biological target: purified folded MHC-complex (Example 29)
Assay: sandwich ELISA, W6/32 coat, HRP rabbit anti-β2m detection

Substance: W6/32 mouse-anti-HLA-ABC antibody (Dako M0736)
- OD450 against the negative control β2m (fold): > 6 fold
